Experimental data published in PMC10491584, “Structural convergence endows nuclear transport receptor Kap114p with a transcriptional repressor function toward TATA-binding protein” (Nature Communications, 2023).

Columns and labels:
[1] = target: T1, Kap114p wild type (S. cerevisiae, UniProt P53067 1-1004); assay: ITC; MicroCal iTC200, 25 °C, 20 mM HEPES pH 7.4, 150 mM NaCl; low concentration: 25 µM wild type or mutant Kap114p in the sample cell, 250 µM wild type or mutant yTBPC in the syringe; triplicate; details: both partners purified
T1 construct: Kap114p (karyopherin-β), S. cerevisiae, full length, amplified from total genomic DNA; GST tag followed by a PreScission site (modified pGEX6p1); PreScission protease added during dialysis; also called Kap114p WT; GST-Kap114p (plasmid pGEX-6P-1-Kap114); source: E. coli Rosetta, purified (GST resin, MonoQ, Superdex 200)
T1 sequence (looked up): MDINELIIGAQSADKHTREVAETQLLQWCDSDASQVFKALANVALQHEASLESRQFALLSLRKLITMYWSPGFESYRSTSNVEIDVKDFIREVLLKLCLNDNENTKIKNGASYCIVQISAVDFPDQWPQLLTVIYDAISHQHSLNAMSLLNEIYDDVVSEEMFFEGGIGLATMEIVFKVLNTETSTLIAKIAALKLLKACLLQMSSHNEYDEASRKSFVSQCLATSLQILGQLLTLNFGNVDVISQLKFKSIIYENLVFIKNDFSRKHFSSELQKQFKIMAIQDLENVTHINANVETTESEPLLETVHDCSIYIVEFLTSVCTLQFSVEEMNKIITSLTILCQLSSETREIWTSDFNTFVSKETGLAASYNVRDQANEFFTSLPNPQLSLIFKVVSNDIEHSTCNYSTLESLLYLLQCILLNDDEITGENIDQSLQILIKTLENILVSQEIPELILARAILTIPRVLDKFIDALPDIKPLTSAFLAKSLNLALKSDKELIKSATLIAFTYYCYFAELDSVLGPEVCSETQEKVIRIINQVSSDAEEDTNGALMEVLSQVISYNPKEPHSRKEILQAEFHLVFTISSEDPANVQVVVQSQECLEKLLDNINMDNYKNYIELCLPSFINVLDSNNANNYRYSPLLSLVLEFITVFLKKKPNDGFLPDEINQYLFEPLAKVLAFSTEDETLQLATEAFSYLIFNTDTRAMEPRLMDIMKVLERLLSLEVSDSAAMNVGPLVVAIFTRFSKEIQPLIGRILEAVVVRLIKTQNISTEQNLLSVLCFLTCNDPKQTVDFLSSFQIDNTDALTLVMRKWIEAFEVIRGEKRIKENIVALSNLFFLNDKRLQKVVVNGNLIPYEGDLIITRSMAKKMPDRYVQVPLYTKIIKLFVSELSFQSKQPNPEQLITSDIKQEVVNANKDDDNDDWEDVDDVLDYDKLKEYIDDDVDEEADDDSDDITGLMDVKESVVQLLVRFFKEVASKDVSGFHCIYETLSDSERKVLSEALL

[2] = target: T2, Kap114pΔ(848-875) (S. cerevisiae, UniProt P53067 1-1004, Δ848-875); assay: ITC; MicroCal iTC200, 25 °C, 20 mM HEPES pH 7.4, 150 mM NaCl; high concentration: 50 µM wild type or mutant Kap114p in the sample cell, 500 µM wild type or mutant yTBPC in the syringe; triplicate; details: both partners purified
T2 construct: this construct is not in the list of mutants of the cloning methods; also called Δ(a.a.848-875); GST-Kap114p (Δ848-875); source: E. coli Rosetta, purified (GST resin, MonoQ, Superdex 200)
T2 sequence (looked up): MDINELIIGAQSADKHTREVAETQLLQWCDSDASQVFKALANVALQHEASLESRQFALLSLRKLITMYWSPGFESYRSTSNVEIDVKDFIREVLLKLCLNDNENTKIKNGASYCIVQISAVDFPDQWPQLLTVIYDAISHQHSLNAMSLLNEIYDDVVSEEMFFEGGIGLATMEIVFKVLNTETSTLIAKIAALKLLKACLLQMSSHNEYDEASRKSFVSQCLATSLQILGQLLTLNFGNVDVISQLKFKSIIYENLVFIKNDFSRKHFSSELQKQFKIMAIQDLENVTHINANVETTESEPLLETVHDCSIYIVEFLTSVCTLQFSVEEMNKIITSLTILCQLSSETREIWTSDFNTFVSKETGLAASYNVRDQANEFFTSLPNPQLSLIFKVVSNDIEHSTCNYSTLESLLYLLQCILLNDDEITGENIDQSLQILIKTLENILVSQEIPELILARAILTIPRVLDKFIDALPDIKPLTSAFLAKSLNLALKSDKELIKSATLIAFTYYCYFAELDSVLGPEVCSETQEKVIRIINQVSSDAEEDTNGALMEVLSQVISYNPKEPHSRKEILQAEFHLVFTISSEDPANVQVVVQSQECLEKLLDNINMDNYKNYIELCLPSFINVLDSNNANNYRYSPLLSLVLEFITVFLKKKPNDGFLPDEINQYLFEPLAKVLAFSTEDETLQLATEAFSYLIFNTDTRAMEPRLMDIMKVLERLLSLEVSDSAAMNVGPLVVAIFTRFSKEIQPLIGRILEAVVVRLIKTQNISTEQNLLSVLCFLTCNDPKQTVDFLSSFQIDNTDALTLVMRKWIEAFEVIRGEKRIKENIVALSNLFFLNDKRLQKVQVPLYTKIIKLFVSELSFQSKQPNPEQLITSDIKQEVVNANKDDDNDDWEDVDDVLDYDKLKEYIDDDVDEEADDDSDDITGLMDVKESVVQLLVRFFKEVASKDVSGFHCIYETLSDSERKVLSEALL

Kd [1]: 1.4 nM
Kd [2]: 1.7 nM
B1: yTBP^C wild type (core domain of yeast TATA-box binding protein, a.a. 61-240) (domain or fragment, S. cerevisiae, UniProt P13393 61-240, looked up)
chain: SGIVPTLQNIVATVTLGCRLDLKTVALHARNAEYNPKRFAAVIMRIREPKTTALIFASGKMVVTGAKSEDDSKLASRKYARIIQKIGFAAKFTDFKIQNIVGSCDVKFPIRLEGLAFSHGTFSSYEPELFPGLIYRMVKPKIVLLIFVSGKIVLTGAKQREEIYQAFEAIYPVLSEFRKM
notes: modified pET28a, 6xHis tag followed by a PreScission site; also called yTBPC WT; His-yTBP (61-240); source: E. coli Rosetta, purified (Ni-NTA, HiTrap SP, Superdex 75); not shown: His6, N-terminal, cleaved
